# Assay results reported in patent US20160152686A1 (Bristol-Myers Squibb, published 2016).
# Assays:
# human serum albumin [1] = target: T1, human serum albumin (human, UniProt P02768 25-609); assay: SPR, affinity to HSA
# T1 construct: also called HSA; HuSA
# VEGFR2-Fc = assay: SPR, VEGFR2 immobilized on chip, ABD-(GS)3-C7FL-His6 (0.02 nM-300 nM) as analyte
# sol VEGFR2 = assay: as above
# human serum albumin [2] = target: T1, human serum albumin; assay: SPR, serum albumin immobilized on chip, ABD-(GS)3-C7FL-His6 (0.02 nM-300 nM) as analyte
# Protocol: (§1) The binding affinity of ABD-(GS)3-C7FL-His6 to human, mouse and Cynomolgus monkey serum albumin was also measured. In an SPR experiment, the serum albumins were immobilized on chip, and ABD-(GS)3-C7FL-His6 (0.02 nM-300 nM) was flowed as analyte.
# [3] = target: Cynomolgus monkey serum albumin (given as RhSA in Table 3) (Cynomolgus monkey; RhSA (table)); assay: as above
# Protocol: as §1
# mouse serum albumin = target: T2, mouse serum albumin (mouse, UniProt P07724 25-608); assay: as above
# T2 construct: also called MuSA
# Protocol: as §1
# [4] = target: recombinant human PCSK9 expressed in baculovirus (human, UniProt Q8NBP7 31-692, limits assumed); assay: PCSK9:EGFA FRET competition assay (inhibition of PCSK9 binding to biotinylated EGFA peptide)
# Description: A fluorescence resonance energy transfer (FRET)-based assay was developed to determine the binding affinity and potency of PCSK9-binding adnectins. It was adapted from the general method described previously by Maio et al. (Miao, B. et al., Meth. Enzymol., 357:180-188 (2002); see also WO 2011/130354). The PCSK9:EGFA FRET assay measures the inhibition of PCSK9 binding to the LDLR epidermal growth factor precursor homology domain (EGFA domain), using recombinant human PCSK9 expressed in baculovirus and a synthetic 40-mer EGFA peptide (biotinylated). […] This assay uses a PCSK9 C-terminal domain binding mAb (mAb 4H5) labeled with Eu-chelate to provide FRET interaction with biotinylated EGFA through the streptavidin/allophycocyanin fluorophore complex. […] Thus, the biological activity of PCSK9 adnectin linked to ABD is at least as good as that of the unmodified PCSK9 adnectin.
Kd (human serum albumin [1]) [nM],Kd (VEGFR2-Fc) [nM],koff (VEGFR2-Fc) [s⁻¹],kon (VEGFR2-Fc) [M⁻¹ s⁻¹],Kd (sol VEGFR2) [nM],koff (sol VEGFR2) [s⁻¹],kon (sol VEGFR2) [M⁻¹ s⁻¹],Kd (human serum albumin [2]) [nM],koff (human serum albumin [2]) [s⁻¹],kon (human serum albumin [2]) [M⁻¹ s⁻¹],Kd [3] [nM],koff [3] [s⁻¹],kon [3] [M⁻¹ s⁻¹],Kd (mouse serum albumin) [nM],koff (mouse serum albumin) [s⁻¹],kon (mouse serum albumin) [M⁻¹ s⁻¹],EC50 [4] [nM],Binder
1.15,3.31,0.000163,49300,3.18,0.000261,82000,1.15,0.000505,439000,1.82,0.000826,455000,1,0.00033,331000,,"ABD-(GS)3-C7FL-His6 (anti-VEGFR2 adnectin linked to ABD at its N-terminus) (designed binder, also called ABD-C7FL; ATI-0001087) MGQHDEAVDANSLAEAKVLANRELDKYGVSDYYKNLINNAKTVEGVKALIDEILAALPGSGSGSVSDVPRDLEVVAATPTSLLISWRHPHFPTRYYRITYGETGGNSPVQEFTVPLQPPTATISGLKPGVDYTITVYAVTDGRNGRLLSIPISINYRTGSGSHHHHHH"
12.4,,,,,,,,,,,,,,,,0.3,"PCSK9 adnectin-ABD fusion protein (PCSK9 adnectin-(GS)3-ABD-His6) (designed binder, Expressed in E. coli; also called PCSK9 Adn-(GS)3-ABD; 2013_E01-(GS)3-ABD (anti-PCSK9)) MGVSDVPRDLEVVAATPTSLLISWVPPSDDYGYYRITYGETGGNSPVQEFTVPIGKGTATISGLKPGVDYTITVYAVEFPWPHAGYYHRPISINYRTGSGSGSQHDEAVDANSLAEAKVLANRELDKYGVSDYYKNLINNAKTVEGVKALIDEILAALPHHHHHH"
,,,,,,,,,,,,,,,,2.6,"unmodified (i.e., without ABD) PCSK9 adnectin (designed binder, also called Enhancer method: None) VSDVPRDLEVVAATPTSLLISWVPPSDDYGYYRITYGETGGNSPVQEFTVPIGKGTATISGLKPGVDYTITVYAVEFPWPHAGYYHRPISINYRT"
